The DeepSol protein solubility set

experiment: soluble on expression in E. coli; label from the status in PepcDB or PDB records

Row | Sequence | soluble on expression in E. coli
1 | MGSDKIHHHHHHVDPVVLLTSVSALTQTQKPCRGRRNARDRIPTCSQETLEGKALALRVAVVGGGPAGSCAAETLVKAGIETYLIERKLDNAKPCGGAIPLCMVSEFDLPAEIIDRRVRNMKMISPSNREVNINLDNADEYIGMTRREVLDGFLRDRAAKLGTKLINGTLFRLELPKGDRDPYVLHYADHSNGSLEGIPSTLEVDVVIGADGANSRIAKAIDAGDYNYAIAFQERIRLPEDKMHYYENLAEMYVGGDVSPDFYAWVFPKYDHVAVGTGTMHVNQRLIKKLQAGIRARAANRLEGGKIIKVEAHPIPEHPRPRRVVGRAALVGDAAGYVTKSSGEGIYFAAKSGRMCAETIVETSNNGARIPTEADLKQYLRRWDKKYGTTYKVLDLLQTVFYRSDATREAFVEMCDDKDVQRLTFDSYLYKTVVPANPLVQLKITAKTLGSLLRGNALAPAEYKPIDAA | not soluble
2 | MGSDKIHHHHHHVGALLSKITATDLASTLTGDPEALHVHLTLVARDVSIKGHTVKIHCHCLTVDGNGRVQPHRLAEFMRNAVVDYAIPRSKVADAKARDLKYNSTEATTELVERAKRSFTDLANTGEGGEMLLFLLAERFLKLPQILCKMDLKTDTRMHYHGADGVYAGVTPSGTLKLYWGESKIYKKVGDAIRDCLASLAPFLIEPEHEDAERERDLILLSDKADLTNSELTGALKRYFDRSSEMSTRVQYCGVALVGFDAPFYPASDVKVLADQIVDGSRRALSDWSDKIGARLAAEKLSDMEIQLFCIPLPSADGFRAAFLKAMGIKGG | not soluble
3 | MGSDKIHHHHHHVGEHGNVNLRAENCRLKGKDIIVLYRDELDLSSEQWLELLQDNTVFKDEDILLVLELYKCNNCREYASVLADSLGVASHSVLNLQIGRLGKRIIARYPDIKYPTREDGVVRYWHIPFWGEDGEKKGHYYWQLRPELKEALKMLKSNQKRKIFALHGEVQLAQEVDEEQTEKLYEGAKIQIVVNAYERNIKARQICIDKYGYKCSICDFDFEEFYGMLGSDYIEVHHLIPLHEINKEYRVDPINDLRPVCPNCHAMLHRAGISYEELKNKIESEC | not soluble
4 | MGSDKIHHHHHHVIRRAKPLLGTLVEIAAESLPHSGSEIPLEDKALEAAMTAAFSRVTHIGRLLSFHQQDSELNQLNRQPGTWIRVSQDSLRVLKLAKWLGKASNNLFNCTVGGEMMSRGALPAYLGMPLLLQGEWQDIEIKDNQVRLARPLILTLDGIAKGYAVDMAVSELRRAGVGGGWVNAGGDLRVFGSASLNVLCRGPKGLSQKICVSNMALASSRVSQTLSHDYPALLLPTGNVTDVNIDLESERIVSVSAPFAWRADALTKVAGYLSSDSAADKIAHLGGRLVSFE | not soluble
5 | MGSDKIHHHHHHVKDGFDLVDTGDPFDTITPVIPISDRPRSQSVVAGTLNDPYRRQAVADARSLWRKSIPGSRGVVAAYLASQGIQLDEIPANLRFVLDHPYMKKSGGLYHELHRGPCVLGGIFSEAGQLLGVNQIWVDPKPPHGRASIQMDGDHMPAEIVRGSCKGGFLPLVWPEAATALVVARSLEAALRAYASRPSGLEDAAYWAVVDLKVMSGKMQRQKGVRYSGLPDLSDDTSFVAPHWVKRLVFLQEDDRTGTRQKLESGLKRSMHVRPGLRASIVRIGSAAKGGV | not soluble
6 | MGSDKIHHHHHHVKSDYYKEPIVINTDALIPPSPSDDMWKNRKRAYYMYDAPDVPTCSIVVTGYNRLHKTKYCVECILKYTRDVDYELILVDNGSDDGTLDFFQSVPYENKTIIRMTQNKGATLPFKYYINILKGKYIVNISNDIYVTQNWLSNLLKCYQSDPKIGFVEPVSSNVSNLQEVDLGFSDFDDMQKKAAAFNQSDPAKWEERLRLISVINVFLRDVLDNVGINDAAYFYDFIEDDLCARIRRMGYKLVLCRDTWICHDHDFRNLEDKDPVAFQASLEHGRAVYRKKYYGIDPWDDINNFELTLLAQLDTAKIPRAVKALTVDVRCGAPALEIRNRLKRRGITDVASYAFTTAAKYYLDLQTVCSEVQCDRIDFIQQHYANGTFDLVVLGEPVNTYPLPVRLLQNLYDFLKPGGLLLFKVRNTDDYRAFLRSIGMEVASDPDLPASTPLNEVLACLKLFGAVDCTVAGELESISVADQEFLMNKLKAANPNADQATLNRLCIKDYCIKVIRK | not soluble
7 | MGSDKIHHHHHHVLETFETVAKAVADPNRVRILKLLESGELCVCQITAVLDLAAATVSKHLSLLKAAGLLQQRREGKWAYYRLADRALNPYAPAFLGLIGATLADDPTLTEDARILSKVNALPLQVLCDQGRAALDLTRPTSPAPSCCGTPMMTETSFNVLFLCTGNSARSILAESILNREGAGKFRAYSAGSHPKGQIDPTVLALLKKTNHPTETLRSKSWDEFAAPGAPTLDFVFTVCDNAAGEVCPIWPGQPMTAHWGVPDPAGFVGSEAEKAAFCGEVMRLLRTRISIFAALPIASLDRLSLQRRLKEIGKVALESRETRESGVL | not soluble
8 | MGSDKIHHHHHHVPMGKLIASLVDIVKKNKFVDDTQKALFDNFENTKRVNVYIDDLDRGWEGRKEDIRRISALLNAVRDISNEMDNVHFMISLRSDVYYLVRTSDESTDKISGSVIWYTWDRHQILALLAKRVETFFGRDISENSLMGMHQSKIAQYLDPIMTQHFEGKGKWENAPIYRILMSLIRNRPRDLVMICTLAARNARKKGRSKILTEDLQSIFEDYSLERIQDIENEFKSELPEIRRLLFALKPSAKKSSKFSDLYVYTTDQVEAKIQSASANAPFYFSNNNKQATSEELHYFLYKINFLTARRKNKDDVLVRKTFEENKYLTGRFVDFGFGWEVHPAYRWALEPDDSESIYARLDLLDFE | not soluble
9 | MGSDKIHHHHHHVREVSKEKGKIDLVSGAASTPLTNDKCSPTGFHWTYDTYALANGTGNAVVKNGGKTWFFLTADYAFGHNLQAQTEKVVKANGGEVKGAVKHPFPNSDFSSFLLQAQASGAQIIGLANAGADTINAIKQAKEFGITQAGQQLAGLLVFITDIHSLGLETAQGMMLTTGFYWDMDDQTRAWSKRWSEKMGNGKMPSMVHAGTYSQVLHYLRAAAAAKTDEGIKVADEMRKLPINDFFAKNGKIRADGRMVHDMYLAQVKKPSESKGPWDYYKIVRTIPGDEAYQPLSESTCSLVKK | not soluble
10 | MGSDKIHHHHHHVRFIMKTNLFTSLLKKCIYGLSWFFPRQGNKAVFGCYKNLFADNSKYLYLHWHKNKFMHVIWISGDASLVNALRKKGFIAYERWSLEGVYHALTARFYIYNSYIGDVNQWFASGSIKINLWHGSPLKRIEFDIDHGPLAHKYQSNSYWQKTWHSLLYHQEYVRPQLMLSPSPLVDRLFCSAFRLQKKQLLSCGNPRTDFYRRYPDKCQSINSKPDGTSYKKVILYAPSWRDANLSNTETVQSPYEKAFNWGVLSQFLVNSDCLFLLRLHPNERHYAKHFSAYPNVRDISSWEDVYGILHQVDLLLTDYSSLFIDVLPLNIPIVFYLFDHESYIKNSRNCYEYSQCLPQAGLIAYGFEELINILKNNTSKKQTETLHLAYTQLQKLYWQEMNEHSDCFELLERYICRRNLLKSPLNTQIS | not soluble
11 | MGSDKIHHHHHHVRLWIPHVTRPTVQPASSYATYSVMPGATVKELADLIGVSTTAVRDHLVHLQAEGMVEVTSERSGPGRPRLVYSLSEKAQKSFPKQYDRLISTLLRELIELEGEGKVEQLLDRVSQRLASEYADRMAGSDVAARLNELRALLEQRGVPAEIDPEGDVLRLFACPYYDVAADYPEVCSMERRMIEYVLGEKLVLEDTIRAGAHNCRFVLRPQDIPLTMTPPAADPTTEV | not soluble
12 | MGSDKIHHHHHHVSATDTLDKTGTQTSAVRLGDLETPCLVLDADRMDRNIARLRDRIAGLGVTLRPHLKTAKSVEVARRVMATSEGPATVSTLKEAEFFADAGVRDIIYAVGIAPWKLAKVIELRKRGVDLAVVLDTVELAQAVAAASRESGMAIPALIEIDCDGHRSGVLPRDSERLLAIGKALVEGGELRGVLTHAGGSYAARGEEALRNAAEEERASVVNAAAILRDAGLPCPVVSVGSTPTAHHATDLTGVTEVRAGVFVFFDLVMTGIGICTVDDIAISVLATVIGHQREKGWILVDAGWMAMSQDRGTAKQVVNQGYGVVCKCDGTPYADLILADANQEHGIIMVRPGSDGTLPDLAIGDRVRILPNHACATGAQHRRYNVVHGTSDVVTGEWQRFGGW | not soluble
13 | MGSDKIHHHHHHVSDLEWVLAIPHEQAFKRMEEPWGGAKTSYLTGIKETLEANYGPIHFTRLYFGEEFCERALSTGKALEEAVAAAEERGWGFTYVTPYLTETGLTKVRLLLDILAQTKPEAEVVINDWGVLDWVTEHHPTFTPVLGRLMNKIIRDPRMPDSLRNSPDQTVMHKFRTCNLAGGEMKDLLDQYQVKRIELDYPPQGLDPNLPAWGYDISLSIPYGVIMTGRICLMQSWGLAAGEKFRTTGPCPRRCRLGWLELSDPSGRVKKDQDWQIMQKGNTVFYRQSKEFLAEILTEAEKTGVSRMIFQPEPI | not soluble
14 | MGSDKIHHHHHHVSKIGIPRTLAYFIYFPLWKTFFEELGHEVVLSPATSKAILDRGVKEAVNDACIPIKLYHGHAAALAGKVDYIFCPRLVSVRSHGDFGTETFCPKFLGLPDMLRLAMDDLPEIIDVRVDLKQGKDGLWQLSQEIGKGLGNSREEIKRAFNRAREQQRQYNRLLYQEMLPLEALKIIEQKNPIPKKEKSNENYDLQVAVVGYPYLLYDAYINAGLLAILEKEKVKVYTQDIISDRKMNQQAKTLPKSTFWYFSNRVIYGALHFMQRPEIEGVIHLTAFACGPDSMVDRLLEIESRRRGNRPYLSIAVDEHTGEAGVRTRIEAFVDMLRYRRERK | not soluble
15 | MGSDKIHHHHHHVTEPLKFQWCDRLGDLPREDWNAIAQPLATPFLEWDWLHDLEASGSVIAKAGWQPCHLVVWRGDRLVAAAPLYLKGHSYGEFVFDQQWADLAGRLGLRYYPKLLGMTPLTPAVGYRFLIAPAEDEATLTGLMLREIDRFCDNNQILSCNFLYVDPDWQPLVEAAGYSAWQHHNSVWQNRGFRTFDDYLGMFNANQRRNIKREVKSMERAGLTLTCLSGDQIPRDYFPLMYRFYSDHCDKFGWWGSKYLTRDFFDRAMHHSRHRLLFVAATPEGSDRPIAMSFCVHKGDRLYGRYWGCDHEIDNLHFNVCYYKPIEWAIANGIQSFDPGAGGSHKKRRGFPATPNWSLHRWYQPRFGQILGTWLRQVNELESQEIEAINAELPFSRPEVPLN | not soluble
16 | MGSDKIHHHHHHVTITNPLPIDRNGEMVEISMAEITGKLQLPDTAQVIVLDENGLEVPYQITYDDMLIFPASVKGDASAVYTIAEGTPQPVDVVACGRQYPERLDDVAWENDRAAYRAYGPALQEKGERAFGYDIWTKSVSEPVVEDRYDGDLNRGISYHVDHGNGMDCYAVGPTLGGGTAALFPDSTIVYPYCYKDCEILDNGPLRFTAKLVYNPLVVKGDSSVIETRIISLDKGSQLNKTVVSFDNLQEITPVVTGIVLHKQNPMGYSFDADAGYIAYADSTENAANNNGVIYIGAVFPATVKGAFAQVFSEKERKERGDALGHVLAVNDYEPGAEYIYYWGSGWSKYGFEADTDWNKYLEEYARKIRNPLAVAIK | not soluble
17 | MGSDKIHHHHHHVTNKRPIAFDATPDTLRRSLVLSAAAASGLGLLPGAMRDARAQSFPPLGNFPAGTEGNSVFVGVSVPLTGAFSAEGKDQQLGFELAFEHLNSGKLAGKIPELKGKGVLGKTITFGVVDTEAKAESAIQGQTRFLRNNKAILMTGCYSSAVTVALGKLAQREKVLYMAGPAGSDDVTGKDCQRYSFRSQPSTTMASRALAPVLAERLGKGKKVAYLVPDYTFGHTQFESMARLTEPMGWKTVSKQVCPIGTADFSTYLLNIANSGADVFVNCTVGNDCSVSIKQAKNFGVMKNAALVVPTLQPFLAQQLGPEVTQDILGVMDFWWSLAESNELAKQFVDDFQAKHNYKPYWPAHIAYSQMLIWAVAVERAKTFYPPEVIKALEARVPIRTTLGDVMYRPEDHQLVRPVPVMRGKKPSEMKSKDDYYEVIKMIPGADAVTPLDQGTCKMGELT | not soluble
